B1: Salmonella typhimurium QAPRTase R118A (enzyme)
chain: MPPRRYNPDDRRDALLERINLDIPAAVAQALREDLGGEVDAGNDITAQLLPADTQAHATVITREDGVFCGKRWVEEVFIQLAGDDVRLTWHVDDGDAIHANQTVFELNGPARVLLTGEATALNFVQTLSGVASEVRRYVGLLAGTQTQLLDTRKTLPGLRTALKYAVLCGGGANHRLGLTDAFLIKENHIIASGSVRQAVEKAFWLHPDVPVEVEVENLDELDDALKAGADIIMLDNFNTDQMREAVKRVNGQARLEVSGNVTAETLREFAETGVDFISVGALTKHVRALDLSMRFC
B2: Salmonella typhimurium QAPRTase R152A (enzyme)
chain: MPPRRYNPDDRRDALLERINLDIPAAVAQALREDLGGEVDAGNDITAQLLPADTQAHATVITREDGVFCGKRWVEEVFIQLAGDDVRLTWHVDDGDAIHANQTVFELNGPARVLLTGERTALNFVQTLSGVASEVRRYVGLLAGTQTQLLDTAKTLPGLRTALKYAVLCGGGANHRLGLTDAFLIKENHIIASGSVRQAVEKAFWLHPDVPVEVEVENLDELDDALKAGADIIMLDNFNTDQMREAVKRVNGQARLEVSGNVTAETLREFAETGVDFISVGALTKHVRALDLSMRFC
B3: Salmonella typhimurium QAPRTase R175A (enzyme)
chain: MPPRRYNPDDRRDALLERINLDIPAAVAQALREDLGGEVDAGNDITAQLLPADTQAHATVITREDGVFCGKRWVEEVFIQLAGDDVRLTWHVDDGDAIHANQTVFELNGPARVLLTGERTALNFVQTLSGVASEVRRYVGLLAGTQTQLLDTRKTLPGLRTALKYAVLCGGGANHALGLTDAFLIKENHIIASGSVRQAVEKAFWLHPDVPVEVEVENLDELDDALKAGADIIMLDNFNTDQMREAVKRVNGQARLEVSGNVTAETLREFAETGVDFISVGALTKHVRALDLSMRFC
B4: Salmonella typhimurium QAPRTase K185A (enzyme)
chain: MPPRRYNPDDRRDALLERINLDIPAAVAQALREDLGGEVDAGNDITAQLLPADTQAHATVITREDGVFCGKRWVEEVFIQLAGDDVRLTWHVDDGDAIHANQTVFELNGPARVLLTGERTALNFVQTLSGVASEVRRYVGLLAGTQTQLLDTRKTLPGLRTALKYAVLCGGGANHRLGLTDAFLIAENHIIASGSVRQAVEKAFWLHPDVPVEVEVENLDELDDALKAGADIIMLDNFNTDQMREAVKRVNGQARLEVSGNVTAETLREFAETGVDFISVGALTKHVRALDLSMRFC
B5: Salmonella typhimurium QAPRTase H188A (enzyme)
chain: MPPRRYNPDDRRDALLERINLDIPAAVAQALREDLGGEVDAGNDITAQLLPADTQAHATVITREDGVFCGKRWVEEVFIQLAGDDVRLTWHVDDGDAIHANQTVFELNGPARVLLTGERTALNFVQTLSGVASEVRRYVGLLAGTQTQLLDTRKTLPGLRTALKYAVLCGGGANHRLGLTDAFLIKENAIIASGSVRQAVEKAFWLHPDVPVEVEVENLDELDDALKAGADIIMLDNFNTDQMREAVKRVNGQARLEVSGNVTAETLREFAETGVDFISVGALTKHVRALDLSMRFC

This data set concerns the molecule itself. The data set is described as follows: SEC. A general note: SEC sorts molecules by how far they enter the pores of the column.
A word on the stoichiometry N: it is the number of molecules, sites or subunits per partner or assembly. Regarding B1, the “stoichiometry N” value was found to be 2. Turning to B2, the “stoichiometry N” value came out at 2. As for B3, the “stoichiometry N” value is 2.

On to B4, for which the “stoichiometry N” value was determined as 2. With B5, the “stoichiometry N” value was found to be 2.
